Article PMC3167946

Target: Envelope glycoprotein gp120Bal (HIV-1 isolate Bal)
Test: ELISA

Substance | EC50 [nM]
human germline HV control scFv (human germline b12 HV recombined with human mature b12 D(J)-segments and VL) | 24.1
macaque germline HV control scFv (macaque germline b12 HV recombined with human mature b12 D(J)-segments and VL) | 2500
